Experiment [1] deals with Active Akt2 (with N terminal His6 tag) (human) (UniProt P31751). Briefly: single-component ELISA, bi-L as detection agent (FIG. 23A, given there as EC50). (ELISA stands for enzyme-linked immunosorbent assay.)
Experiment [2] has the same target. Briefly: single-component ELISA, mono-L as detection agent (FIG. 23A, given there as EC50).
Experiment [3] has the same target. Briefly: summary sentence of Example 1; method not given.
Experiment [4] has the same target. Nature of the experiment: SPR, Biacore T100, biotinylated N-tL on SA chip, Akt2 protein as analyte, 10° C., 1:1 binding model. (Surface plasmon resonance follows binding to a sensor surface in real time, without labels.)
Experiment [5] shares this target. Nature of the experiment: single component ELISA, N-tL as surface-localized capture agent (FIG. 23A).

Square brackets hold non-standard residues; d marks the D form. Ends that are not written are not given here. S1 = acylated D-Pra whose alkyne is clicked through a 1,2,3-triazole to acylated azidolysine-PEG2-biotin; dPra = C#CC[C@@H](N)C(=O)O

Consider three molecules from patent US20150219657A1.

Broadly, the Kd is the constant that tells how readily two partners part at equilibrium. Read a low Kd as higher affinity. What is called EC50 is the midpoint of the concentration-response curve.

Chain of Active Akt2 (with N terminal His6 tag) (human) (P31751 other isoform, or with tags, fused parts or gaps): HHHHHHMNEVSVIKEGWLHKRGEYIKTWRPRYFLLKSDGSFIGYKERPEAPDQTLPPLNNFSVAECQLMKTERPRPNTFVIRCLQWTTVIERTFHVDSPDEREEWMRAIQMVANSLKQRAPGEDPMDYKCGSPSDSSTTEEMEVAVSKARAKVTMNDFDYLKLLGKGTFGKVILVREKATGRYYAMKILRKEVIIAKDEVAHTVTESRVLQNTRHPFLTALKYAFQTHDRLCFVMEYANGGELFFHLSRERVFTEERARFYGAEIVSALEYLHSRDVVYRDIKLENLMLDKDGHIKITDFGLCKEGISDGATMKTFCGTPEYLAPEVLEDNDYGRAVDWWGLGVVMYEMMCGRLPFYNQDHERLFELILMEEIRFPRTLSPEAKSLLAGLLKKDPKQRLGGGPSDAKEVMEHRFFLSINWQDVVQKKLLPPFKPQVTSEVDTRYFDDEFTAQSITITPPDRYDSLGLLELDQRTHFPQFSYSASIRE

B1: bi-L (designed binder)
peptide 1: [dW][dK][dV][dK][dL]-NH2
peptide 2: [dH][dN]G[dY][dF][dPra]
modifications: also: arms joined via S3 linker (azide, PEG2-biotin) coupled to the wkvkl N-terminus, biotin-PEG2 label, triazole to a chain's N/C-terminus via S3 linker
As to B1, the affinity in experiment [1] is 1 µM.

In turn, S1-[dW][dK][dV][dK][dL]-NH2 (designed binder) [mono-L] registered an affinity in experiment [2] of 3 µM.

B2: N-tL (designed binder)
peptide 1: [dW][dK][dV][dK][dL]
peptide 2: [dH][dN]G[dY][dF]
peptide 3: Ac-[dPra][dY][dY][dR][dF]G-NH2
modifications: triazole (positions not given here); not fully specified (N-terminus, bridges); also: C-terminal D-Pra clicked via triazole to L-azidolysine of S4, arm not given here, N-terminus coupled to S4 (azidolysine-PEG2-biotin)
B2 had an affinity in experiment [3] of 20 nM. In addition, the Kd in experiment [4] came to 25 nM. Moreover, in experiment [5], the EC50 is 19 nM.
